In patent publication USRE49583E1, “Inducible expression systems” (priority 2005, dated 2023):
Substitutions are numbered along the chain they refer to. In names and notes the source's numbering stands. Entries after “also recorded” stand apart in the source; their conditions may differ.

B1: V9I F67S C68R G138D F86Y: rtTA variant with these amino acid substitutions (protein)
chain: MSRLDKSKIINSALELLNGVGIEGLTTRKLAQKLGVEQPTLYWHVKNKRALLDALPIEMLDRHHTHSRPLEGESWQDFLRNNAKSYRCALLSHRDGAKVHLGTRPTEKQYETLENQLAFLCQQGFSLENALYALSAVDHFTLGCVLEEQEHQVAKEERETPTTDSMPPLLRQAIELFDRQGAEPAFLFGLELIICGLEKQLKCESGGPADALDDFDLDMLPADALDDFDLDMLPADALDDFDLDMLPG
B2: V9I F67S E157K F86Y: rtTA variant with these amino acid substitutions (protein)
chain: B1 chain with R68C, D138G, E157K
B3: V9I C68R G138D F86Y: rtTA variant with these amino acid substitutions (protein)
chain: B1 chain with S67F
B4: V9I F67S G138D F86Y: rtTA variant with these amino acid substitutions (protein)
chain: B1 chain with R68C
B5: E37Q F67S F86Y A209T: rtTA variant with these amino acid substitutions (protein)
chain: B1 chain with I9V, E37Q, R68C, D138G, A209T
B6: V9I F67S C68R G138D F86Y A209T: rtTA variant with these amino acid substitutions (protein)
chain: B1 chain with A209T
B7: E37Q F67S F86Y: rtTA variant with these amino acid substitutions (protein)
chain: B1 chain with I9V, E37Q, R68C, D138G
B8: V9I F67S R171K F86Y: rtTA variant with these amino acid substitutions (protein)
chain: B1 chain with R68C, D138G, R171K

Tested on: chromosomally integrated CMV-7tetO luciferase reporter in HeLa X1/6 cells
Assay: rtTA activity assay, HeLa X1/6 cells with integrated CMV-7tetO luciferase reporter (Example 1, FIG. 2-3, 5, 14, 15)
Type: cell-based
Conditions: for basal / background activity in the absence of inducer: no dox or other effector; for rtTA activation by minocycline (Mc): 0-10000 ng/ml Mc
Source text: To test whether this rtTA optimization reflects a specific adaptation to the viral LTR-2ΔtetO promoter, we assayed rtTA activity with a reporter gene construct in which luciferase expression is under the control of a minimal CMV promoter coupled to an array of seven tetO elements. […] Thus, the observed mutations in rtTA are not virus-specific adaptations, but are general improvements of the Tet-on system. We also assayed rtTA activity in HeLa X1/6 cells that contain chromosomally integrated copies of the CMV-7tetO luciferase reporter construct (FIG. 2C). In these cells, the evolved rtTAs show a similar pattern of activity as with episomal reporter gene constructs in C33A cells. Thus, these mutations improve rtTA activity independent of the type of promoter and the episomal or chromosomal status of the target gene.
The V10 variant needs only 44 ng/ml dox to reach this activity level, which reflects a 23-fold higher dox-sensitivity than the wild-type rtTA.
rtTA activity assay. Two firefly luciferase reporter constructs with different promoter configurations were used. pLTR-2ΔtetO-luc contains the LTR-2ΔtetO promoter derived from the HIV-rtTA molecular clone (Marzio et al. 2001; Marzio et al. 2002). pCMV-7tetO-luc, previously named pUHC13-3 (Gossen et al. 1992), contains seven tetO elements located upstream of a minimal CMV promoter. The plasmid pRL-CMV (PROMEGA®, Madison, Wis., USA), in which the expression of Renilla luciferase is controlled by the CMV promoter, was used as an internal control to allow correction for differences in transfection efficiency.
C33A and HeLa X1/6 cells were grown in 2-cm^2 wells to 60% confluency and transfected by the calcium phosphate precipitation method (Das et al. 1999). C33A cells were transfected with 0.4 ng pCMV-rtTA (wild-type or mutant), 20 ng pLTR-2ΔtetO-luc or pCMV-7tetO-luc, 0.5 ng pRL-CMV, and 980 ng pBluescript as carrier DNA. HeLa X1/6 cells were transfected with 8 ng pCMV-rtTA, 2.5 ng pRL-CMV, and 990 ng pBluescript. The amount of the DNA constructs was optimized for each cell type to keep rtTA-mediated transactivation within the linear range and to avoid squelching of transcription factors. Cells were cultured for 48 hours in the presence of different concentrations of dox, Tc or Mc, and lysed in Passive Lysis Buffer (PROMEGA®). Firefly and Renilla luciferase activities were determined with the dual-luciferase reporter assay (PROMEGA®). The activity of the rtTA variants was calculated as the ratio of the firefly and Renilla luciferase activities, and corrected for between-session variation.
FIG. 2. Novel rtTA variants show increased activity and dox-sensitivity in different Tet systems. The transcriptional activity of rtTA variants was measured in C33A cells transfected with a plasmid carrying the firefly luciferase reporter gene under the control of the viral LTR-2ΔtetO promoter (LTR-2ΔtetO; A) or under the control of a minimal CMV-derived promoter coupled to seven tetO elements (CMV7-tetO; B). Furthermore, rtTA activity was measured in HeLa X1/6 cells (Baron et al. 1997) that contain a chromosomally integrated copy of the CMV-7tetO reporter construct (CMV7tetO-integrated; C, D). Variants V1 to V10 were compared in all three Tet systems (panels A-C) and variants V11 to V18 in the cells with the integrated reporter (panel D). Cells were transfected with the indicated rtTA expression plasmid or pBluescript as a negative control, and a plasmid constitutively expressing Renilla luciferase to correct for differences in transfection efficiency. Cells were cultured in the presence of different dox concentrations (0-1000 ng/ml). The ratio of the firefly and Renilla luciferase activities measured 2 days after transfection reflects the rtTA activity. All values were related to the wild-type (wt) rtTA activity at 1000 ng/ml dox, which was arbitrarily set at 100%. In (C and D), average values of three transfections are shown with error bars indicating the standard deviation.
FIG. 3. […]

Molecule | basal / background activity in the absence of inducer | also measured
B1 | no or low basal activity | –
B2 | no or low basal activity | –
B3 | no or low basal activity | –
B4 | no or low basal activity | –
B5 | no or low basal activity | rtTA activation by minocycline (Mc) (listed as F67S E37Q F86Y A209T): particularly sensitive for minocycline; also recorded: very sensitive for minocycline; basal / background activity in the absence of inducer (listed as F67S E37Q F86Y A209T): low background activity
B6 | no or low basal activity | rtTA activation by minocycline (Mc): particularly sensitive for minocycline; rtTA activation by tetracycline (Tc) (0-10000 ng/ml Tc): particularly sensitive for tetracycline
B7 | no or low basal activity | –
B8 | no or low basal activity | –
